Where two headings read alike, the source gives them in different places. No end group written: not given here.
T1: AP2-μ2 (μ2 subunit of clathrin-adaptor protein 2, residues 158–435) (Rattus norvegicus, UniProt P84092)
T1 construct: recombinant AP2-μ2 protein (residues 158–435) expressed in E. coli; made in house; host or cells: Escherichia coli BL21(DE3) RIL
T1 sequence (P84092 158-435): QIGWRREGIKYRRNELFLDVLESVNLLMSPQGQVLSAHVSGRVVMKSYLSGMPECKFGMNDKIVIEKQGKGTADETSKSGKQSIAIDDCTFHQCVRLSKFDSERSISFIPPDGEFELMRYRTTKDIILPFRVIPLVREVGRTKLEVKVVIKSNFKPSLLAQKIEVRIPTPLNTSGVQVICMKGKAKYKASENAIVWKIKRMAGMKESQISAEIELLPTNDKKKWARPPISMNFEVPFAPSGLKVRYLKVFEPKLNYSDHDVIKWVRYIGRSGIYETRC

T2: μ2 subunit of clathrin-adaptor protein 2 (AP2-μ2), residues 158–435, wild type (rat, UniProt P84092 158-435)
T2 construct: also called recombinant AP2-μ2; μ2 subunit of rat AP2; source: E. coli BL21(DE3) RIL, purified (Ni-NTA, SEC)
T2 sequence (looked up): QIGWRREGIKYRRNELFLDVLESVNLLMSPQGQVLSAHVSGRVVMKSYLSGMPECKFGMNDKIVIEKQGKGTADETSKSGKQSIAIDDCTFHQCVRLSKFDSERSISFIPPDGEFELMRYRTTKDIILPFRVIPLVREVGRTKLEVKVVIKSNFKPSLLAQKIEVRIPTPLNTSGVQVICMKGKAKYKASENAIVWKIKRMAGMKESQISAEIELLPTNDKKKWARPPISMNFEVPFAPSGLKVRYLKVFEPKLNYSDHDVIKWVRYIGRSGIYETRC

T3: AP2-μ2 (residues 158–435) R402A∙K405A mutant (rat, UniProt P84092 158-435, R402A | K405A)
T3 construct: also called R402A∙K405A mutant recombinant AP2-μ2; source: E. coli, purified by the same protocol as the wild-type protein
T3 sequence: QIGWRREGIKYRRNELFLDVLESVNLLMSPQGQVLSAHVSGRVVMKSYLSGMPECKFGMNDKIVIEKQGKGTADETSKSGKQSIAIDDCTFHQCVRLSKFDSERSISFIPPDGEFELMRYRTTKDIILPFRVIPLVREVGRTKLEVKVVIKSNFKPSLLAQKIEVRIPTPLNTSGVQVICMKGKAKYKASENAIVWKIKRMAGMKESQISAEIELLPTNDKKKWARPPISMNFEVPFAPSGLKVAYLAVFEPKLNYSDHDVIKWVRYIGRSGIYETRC

T4: μ2 subunit of clathrin-adaptor protein 2 (AP2-μ2), residues 158–435, wild type (rat, UniProt P84092 158-435)
T4 chain: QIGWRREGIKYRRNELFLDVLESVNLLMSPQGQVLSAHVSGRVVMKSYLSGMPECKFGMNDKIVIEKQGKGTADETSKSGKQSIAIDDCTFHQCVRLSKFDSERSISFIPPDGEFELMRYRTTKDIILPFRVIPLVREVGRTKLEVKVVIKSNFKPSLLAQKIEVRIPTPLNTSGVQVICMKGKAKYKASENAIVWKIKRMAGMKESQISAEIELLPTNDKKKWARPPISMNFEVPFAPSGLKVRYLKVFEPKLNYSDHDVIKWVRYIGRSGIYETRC


Assays:
[1] = biological target: integrin α4 (Homo sapiens); test: ITC; conditions: cited from earlier work
PIP5KIγ (Homo sapiens) = test: ITC; conditions: cited from earlier work
[2] = biological target: T1, AP2-μ2 (μ2 subunit of clathrin-adaptor protein 2, residues 158–435); test: ITC binding of HPV E7-derived synthetic peptides to recombinant wild-type AP2-μ2; conditions: for binding to AP2-μ2 in ITC (result in words): peptide titrated into wild-type recombinant AP2-μ2
Experimental: A DNA fragment encoding residues 158–435 of the μ2 subunit of rat AP2 was cloned into a modified pET28a plasmid (Novagen, USA) to produce a recombinant protein tagged with (His)10−maltose-binding protein. The recombinant protein was expressed in Escherichia coli BL21(DE3) RIL cells (Novagen) grown in Luria-Bertani medium at 18°C for 16 h following induction with 0.5 mM isopropyl β-D-thiogalactopyranoside. Proteins were purified using Ni-NTA affinity chromatography (QIAGEN, Germany), followed by size-exclusion chromatography on a HiLoad 26/600 Superdex 200 prep grade column (Cytiva, USA). The (His)10−maltose-binding protein tag was cleaved by TEV protease and removed during subsequent purification steps. Final protein samples were equilibrated in a buffer containing 50 mM Tris-HCl (pH 7.5), 500 mM NaCl, and 3 mM β-mercaptoethanol. […] Crystals were obtained using the sitting-drop vapor diffusion method at 18°C by from a mixture of 1 μl protein solution (10 mg/ml) and 1 μl precipitant solution. […] X-ray diffraction data were collected at beamlines 5C and 7A of the Pohang Accelerator Laboratory (Korea) and processed using HKL2000 ([Otwinowski and Minor, 1997]). Molecular replacement was performed using Phaser ([McCoy et al., 2007]) with the structure of AP2-μ2 complexed with a PIP5KIγ-derived peptide (Protein Data Bank [PDB] code: 3H85) used as the search model ([Kahlfeldt et al., 2010]). Model building and refinement were performed using Coot ([Emsley and Cowtan, 2004]) and PHENIX ([Adams et al., 2010]), respectively.
Recombinant AP2-μ2 protein harboring R402A∙K405A mutations was prepared and purified using the same protocol as that used for the wild-type protein. […] All peptides were dialyzed against the same buffer used for AP2-μ2 purification. Isothermal titration calorimetry (ITC) was performed using recombinant AP2-μ2 proteins and synthetic peptides as previously described ([Jung et al., 2023]; [Lim et al., 2021]).
Fig. 2. ITC analysis of the effect of the Y-x-x-Φ motif on complex formation. Each peptide (0.2 mM) was titrated into 10 μM recombinant AP2-μ2 as indicated. KD and Ka values were deduced from curve fitting of the integrated heat per mole of added ligand. Mutated residues are highlighted in blue.
Fig. 3. ITC analysis of the effect of the acidic cluster region on complex formation. Each peptide was titrated into wild-type (A) or R402A∙K405A mutant (B) recombinant AP2-μ2 as indicated. KD and Ka values were obtained by curve-fitting of the integrated heat per mole of added ligand. Mutated residues are highlighted in blue. […] Negatively charged cluster residues are marked in red.

[3] = biological target: T2, μ2 subunit of clathrin-adaptor protein …; test: ITC; peptide titrated into recombinant AP2-μ2; 50 mM Tris-HCl (pH 7.5), 500 mM NaCl, 3 mM β-mercaptoethanol; in Fig. 2 peptide 0.2 mM into 10 μM AP2-μ2; conditions: both partners purified
[4] = biological target: T3, AP2-μ2 (residues 158–435) R402A∙K405A …; test: as above; conditions: both partners purified
[5] = biological target: T4, μ2 subunit of clathrin-adaptor protein …; test: ITC
[6] = biological target: T4, μ2 subunit of clathrin-adaptor protein …; test: ITC

AP2-μ2, sequence (Q96CW1 whole entry): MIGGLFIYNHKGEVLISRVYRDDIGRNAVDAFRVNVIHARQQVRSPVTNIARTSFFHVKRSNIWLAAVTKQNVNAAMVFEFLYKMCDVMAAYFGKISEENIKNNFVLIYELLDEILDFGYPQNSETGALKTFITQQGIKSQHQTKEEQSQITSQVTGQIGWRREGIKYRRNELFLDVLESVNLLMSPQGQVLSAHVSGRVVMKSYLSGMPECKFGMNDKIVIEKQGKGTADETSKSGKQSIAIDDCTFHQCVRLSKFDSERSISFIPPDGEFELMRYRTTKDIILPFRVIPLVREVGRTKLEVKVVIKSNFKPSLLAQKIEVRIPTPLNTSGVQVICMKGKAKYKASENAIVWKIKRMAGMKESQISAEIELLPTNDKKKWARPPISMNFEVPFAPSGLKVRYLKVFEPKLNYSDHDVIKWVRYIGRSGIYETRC

Molecule | binding to AP2-μ2 in ITC (result in words) [2] | Kd [3] [µM] | other results
AP2-μ2 (from UniProt Q96CW1) |  |  | Kd [1]: 72 µM; Kd (PIP5KIγ (Homo sapiens)): 6 µM
Y25H: 11-mer HPV16 E7 residues 22–32 synthetic peptide with Y25H mutation (LYCHEQLNDSS) | severely impaired |  | 
residues 25–42 of HPV18 E7: 18-mer peptide lacking the Y-x-x-Φ motif, residues 25–42 of HPV18 E7 (LLCHEQLSDSEEENDEID; UniProt P06788 25-42, looked up, fragment) | did not bind |  | 
LHCYEELSEEETEEEPRF [HPV15 E7(24–41)] |  |  | Kd [2]: 13.3 µM
L28A: 11-mer HPV16 E7 residues 22–32 synthetic peptide with L28A mutation (LYCYEQANDSS) | severely impaired |  | 
Y25N: 11-mer HPV16 E7 residues 22–32 synthetic peptide with Y25N mutation (LYCNEQLNDSS) | severely impaired |  | 
QPETTDLYCYEQLNDEE (source: synthetic peptide, bought: Dandicure (Korea)) [HPV16 E7(16–32; S31E∙S32E) 17-mer peptide] |  | 1.64 | Kd [4]: 8.26 µM
LYCYEQLNDEEEEEDEID (HPV16 E7 residues 22–39 with S31E and S32E; source: synthetic peptide, bought: Dandicure (Korea)) [HPV16 E7(22–39; S31E∙S32E) 18-mer phosphomimetic peptide] |  | 2.34 | 
LYCYEQLNDSS (source: synthetic peptide, bought: Dandicure (Korea)) [HPV16 E7(22–32) wild-type 11-mer peptide] |  | 5.88 | Ka [5]: 170000 M⁻¹
LYCYEQLNDEE (also called 11-mer phosphomimetic mutant HPV16 E7 peptide; source: synthetic peptide, bought: Dandicure (Korea)) [HPV16 E7(22–32; S31E∙S32E) 11-mer phosphomimetic peptide] |  | 1.54 | 
LYCYEQLNDSSEEEDEID (HPV16 E7 residues 22–39; source: synthetic peptide, bought: Dandicure (Korea)) [HPV16 E7(22–39) wild-type 18-mer peptide] |  | 3.34 | Ka [6]: 299000 M⁻¹

Source: paper PMC13577001, “Crystal structures of the μ2 subunit of clathrin-adaptor protein 2 in complex with peptides derived from human papillomavirus 16 E7” (The Journal of Microbiology, 2025)
